Measured values reported in paper PMC8546961, “Cofactor Specificity of Glucose-6-Phosphate Dehydrogenase Isozymes in Pseudomonas putida Reveals a General Principle Underlying Glycolytic Strategies in Bacteria” (mSystems, 2021).
Like-named read-outs stand apart in the source and are kept apart here.

Experiments:
[1] = molecular target: T1, G6PDH-C (Pseudomonas putida, UniProt Q88C32); assay: initial rates, NAD(P)H formation at […] nm, global fit (DYNAFIT), rapid-equilibrium random-ordered model; assay type: biochemical; settings: buffer A (50 mM Tris-HCl, 5 mM NaCl, 5 mM MgCl2, 5% glycerol), pH 8.0, 30°C, G6P varied
T1 construct: gene zwf
T1 sequence (Q88C32 1-485): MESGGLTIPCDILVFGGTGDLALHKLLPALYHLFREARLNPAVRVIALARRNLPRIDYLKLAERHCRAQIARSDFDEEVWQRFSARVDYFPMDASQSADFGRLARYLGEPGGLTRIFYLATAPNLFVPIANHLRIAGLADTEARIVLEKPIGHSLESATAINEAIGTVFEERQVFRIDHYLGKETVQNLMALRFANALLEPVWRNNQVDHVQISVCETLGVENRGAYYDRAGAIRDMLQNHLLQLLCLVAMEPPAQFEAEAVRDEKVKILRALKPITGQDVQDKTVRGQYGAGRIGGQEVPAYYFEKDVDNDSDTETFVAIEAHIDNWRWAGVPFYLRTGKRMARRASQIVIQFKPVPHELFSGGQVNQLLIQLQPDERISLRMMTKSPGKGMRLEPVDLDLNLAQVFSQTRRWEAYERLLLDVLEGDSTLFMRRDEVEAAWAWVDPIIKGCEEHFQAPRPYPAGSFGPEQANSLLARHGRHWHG

[2] = molecular target: T2, G6PDH-B (Pseudomonas putida, UniProt Q88FP7); assay: as above; assay type: biochemical; settings: buffer A (50 mM Tris-HCl, 5 mM NaCl, 5 mM MgCl2, 5% glycerol), pH 8.0, 30°C, G6P varied
T2 construct: gene zwfB
T2 sequence (Q88FP7 1-501): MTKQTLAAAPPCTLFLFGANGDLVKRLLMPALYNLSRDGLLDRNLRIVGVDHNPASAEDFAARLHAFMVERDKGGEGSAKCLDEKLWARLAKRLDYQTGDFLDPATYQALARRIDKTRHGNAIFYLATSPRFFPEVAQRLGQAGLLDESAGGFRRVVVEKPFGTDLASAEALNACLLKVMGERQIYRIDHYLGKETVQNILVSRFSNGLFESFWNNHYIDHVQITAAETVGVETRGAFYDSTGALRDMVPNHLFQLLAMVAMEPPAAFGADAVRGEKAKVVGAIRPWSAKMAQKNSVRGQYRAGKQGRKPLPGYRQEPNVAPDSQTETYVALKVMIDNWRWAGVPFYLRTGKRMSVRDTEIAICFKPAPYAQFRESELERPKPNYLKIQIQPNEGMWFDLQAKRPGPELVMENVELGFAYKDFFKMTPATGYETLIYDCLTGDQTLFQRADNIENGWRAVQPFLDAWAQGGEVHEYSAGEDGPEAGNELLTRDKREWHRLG

[3] = substrate: NC(=O)c1ccc[n+]([C@@H]2O[C@H](COP(=O)(O)OP(=O)(O)OC[C@H]3O[C@@H](n4cnc5c(N)ncnc54)[C@H](O)[C@@H]3O)[C@@H](O)[C@H]2O)c1; assay: purified protein; assay type: biochemical, Pseudomonas putida; settings: G6P co-substrate, buffer A (50 mM Tris-HCl, 5 mM NaCl, 5 mM MgCl2, 5% glycerol), pH 8.0, 30°C
[4] = substrate: NC(=O)c1ccc[n+]([C@@H]2O[C@H](COP(=O)(O)OP(=O)(O)OC[C@H]3O[C@@H](n4cnc5c(N)ncnc54)[C@H](OP(=O)(O)O)[C@@H]3O)[C@@H](O)[C@H]2O)c1; assay: purified protein; assay type: biochemical, Pseudomonas putida; settings: G6P co-substrate, buffer A (50 mM Tris-HCl, 5 mM NaCl, 5 mM MgCl2, 5% glycerol), pH 8.0, 30°C
[5] = dissociation constant of NADP+ from free enzyme, read-out: NADP^+ / Ki
[6] = dissociation constant of NAD+ from free enzyme, read-out: NAD^+ / Ki

| Molecule | Kd [1, 5] [µM] | Kd [2, 5] [µM] | Kd [1, 6] [µM] | Kd [2, 6] [µM] | Km [3] | kcat [3] [s^–1] | Km [4] [µM] | kcat [4] [s^–1] |
| --- | --- | --- | --- | --- | --- | --- | --- | --- |
| G6PDH-B (Pseudomonas putida KT2440) (protein) MTKQTLAAAPPCTLFLFGANGDLVKRLLMPALYNLSRDGLLDRNLRIVGVDHNPASAEDFAARLHAFMVERDKGGEGSAKCLDEKLWARLAKRLDYQTGDFLDPATYQALARRIDKTRHGNAIFYLATSPRFFPEVAQRLGQAGLLDESAGGFRRVVVEKPFGTDLASAEALNACLLKVMGERQIYRIDHYLGKETVQNILVSRFSNGLFESFWNNHYIDHVQITAAETVGVETRGAFYDSTGALRDMVPNHLFQLLAMVAMEPPAAFGADAVRGEKAKVVGAIRPWSAKMAQKNSVRGQYRAGKQGRKPLPGYRQEPNVAPDSQTETYVALKVMIDNWRWAGVPFYLRTGKRMSVRDTEIAICFKPAPYAQFRESELERPKPNYLKIQIQPNEGMWFDLQAKRPGPELVMENVELGFAYKDFFKMTPATGYETLIYDCLTGDQTLFQRADNIENGWRAVQPFLDAWAQGGEVHEYSAGEDGPEAGNELLTRDKREWHRLG | – | – | – | – | 151 ± 7 µM | 120 ± 1 | 165 ± 11 | 113 ± 1 |
| G6PDH-C (Pseudomonas putida KT2440) (protein) MESGGLTIPCDILVFGGTGDLALHKLLPALYHLFREARLNPAVRVIALARRNLPRIDYLKLAERHCRAQIARSDFDEEVWQRFSARVDYFPMDASQSADFGRLARYLGEPGGLTRIFYLATAPNLFVPIANHLRIAGLADTEARIVLEKPIGHSLESATAINEAIGTVFEERQVFRIDHYLGKETVQNLMALRFANALLEPVWRNNQVDHVQISVCETLGVENRGAYYDRAGAIRDMLQNHLLQLLCLVAMEPPAQFEAEAVRDEKVKILRALKPITGQDVQDKTVRGQYGAGRIGGQEVPAYYFEKDVDNDSDTETFVAIEAHIDNWRWAGVPFYLRTGKRMARRASQIVIQFKPVPHELFSGGQVNQLLIQLQPDERISLRMMTKSPGKGMRLEPVDLDLNLAQVFSQTRRWEAYERLLLDVLEGDSTLFMRRDEVEAAWAWVDPIIKGCEEHFQAPRPYPAGSFGPEQANSLLARHGRHWHG | – | – | – | – | (9.5 ± 1.1)×10^3 μM | 0.77 ± 0.04 | 3.2 ± 0.7 | 0.54 ± 0.02 |

Further lines, with some results ahead:

| Kd [1, 5] [µM] | Kd [2, 5] [µM] | Kd [1, 6] [µM] | Kd [2, 6] [µM] | Molecule | Km [3] | kcat [3] [s^–1] | Km [4] [µM] | kcat [4] [s^–1] |
| --- | --- | --- | --- | --- | --- | --- | --- | --- |
| 9.2 ± 1.9 | 790 ± 110 | – | – | NC(=O)c1ccc[n+]([C@@H]2O[C@H](COP(=O)(O)OP(=O)(O)OC[C@H]3O[C@@H](n4cnc5c(N)ncnc54)[C@H](OP(=O)(O)O)[C@@H]3O)[C@@H](O)[C@H]2O)c1 [NADP^+] | – | – | – | – |
| – | – | 5800 | 301 ± 48 | NC(=O)c1ccc[n+]([C@@H]2O[C@H](COP(=O)(O)OP(=O)(O)OC[C@H]3O[C@@H](n4cnc5c(N)ncnc54)[C@H](O)[C@@H]3O)[C@@H](O)[C@H]2O)c1 [NAD^+] | – | – | – | – |
